Assay results reported in a protein production outcome set (Wang et al. 2014).

Experiment: label from the status in PepcDB records

Sequence | protein production
MLMHATMAALAVFICFAGNYLTGQSMMERPLVVGLVTGILMGDMKTGVLMGASLEAIFLGNVNIGGVIAAEPVTATTLATTFAIISNVEQKAAMTLAVPIGMLAAFVVMFLKNVFMNIFAPSLDKAAREGNQKMVVTLHYGTWIIYYLIIASISFIGILAGSGPVNLFVESIPQNLMNGLSAAGGLLPAVGFAMLMKLLWDNKLAVFYILGFVLTAYLQLPAVAVAVIGTVICVVSAQRDVEFRDILKRKPAASSAVEGSAKEIEEEDFFA | failed
VELLQVDADLQAEIVGKYNADLQKAVQIEEKKAREIATEAVKEHVTAEYEERYAEHEEHDRIMRDVAEILEQMEHAEVRRLITEDKVRPD | not failed
MEKVLTDLDRVNIAKQEYELGSQLDTLVKIMSQDKVLPIGKVAHVQDGGKETGEQIYTITPNGTLDKPEDVKEVTVLFKGSTAPFGGDDWKTDWFKNDIPIASKLLLKKFGSQSVSHKQGTKQLEQSAHLLKEVMNKYPNAKISVYGHSLGSMNAQYAIAELDDNQIYRVQGAWIYNGPNLYSILTDKQKEQVDKIKGVVNNYVDSKDKIGIGYPKEGSDNAVGIVKIVDSKAVSGGSWVANFTNQHIWGGYQYNPDGSLKLAEDKFAYKENYSVVHTNVNQRMHAIKAKLSSFKSTGKEVSKNQAIFLDSQQAKVISSGLVTISKEAVEEVKKVEQKAVAKAEELYQSLKVAPTGVTELSPQELEEAYAQSGVSYASIVGEAQTFFSNKTQAAESISHAYVELENQINKGVEAMLRQDSNLSGEFKQWH | failed
MYAGRRDPSHVGIVMVGSPATATLILNDKVVVDLEGETLRLENGDAIALRPQAFAVLRHLVQNANRLVSKAELLEAVWGGAAVTDDSLVQCIHEIRRALGDERYAVLATVSRRGYRLSLERSDESALGGPSIAVLPFATMSGGEPNDYFADGLVEDIITNLSKIPGLFVIARNSSFGFRGEKADLRTIAAELRVRYLLQGSLRQSGGRLRIYAQLVDGASATHVWADRFEGAATDVFDLQDRLTEQIVGSIEPSVRRAEIERAHRKRPESLDAYDLYLRALPHAHANTPAQTDKALQLLARSIELQPDYVAAHGYAAWCYEQRYLRNGLDPADKAAALSHADIALGINSDDPQAMSIGAFVRANLTRDYDAAVEVLDRALAWNNNSTLAFGFSALVSAHSERHQRAVEHAHKALRLSPLDDPLSYHPYCALALTHLFAGAFADAARYAALAVRANPGFSIPYAYLAASHVGLGNVEAAHSAARRLIEVAPNFSVGGYVRTNLFQPYLMDALAAALRKAGLPE | failed
MKSTLIVIGNIILVILILFIYTMLWYYIGAKGKGIIFGVNLRKKEGLKAVAYWGIFWFLAFSFILSVASRSTISINNKITGILTYLGAISLALFCYLIIIFPITDLIRFILNKLGFSGSLREYMSIIYGRGISIFIAVIIIILFGFWHAIHQTTTNYNISINKKAGKLKQLNVVMVSDVHMGIMIRERGIDKLVTSINKLKPDVVFFCGDMVDESTPTSLEKYYSSAFKEIISKYGVYAITGNHEYATQNSEVAMNYMKKADIKVLEDKAVKVDNSFYVIGRNDAAGGKVKPLNEIMKNADKRLPIIALNHRPVALEEAEKNGVDLQLSGHTHEGQIFPFNFTTKLVFEDDYGYLKKKDFNLIVTSGYGTWGPPIRIGTKGEIVNIKIDFMN | failed
MGDSHDVCRQLLPRAIFGINGKVENGVRQHPVTGSIIFALGNKIGIADYKKNTQEFVAGHTNTISCLDLSKSGKYMASGQINHMGFRGYVIIWNYDQRKEIARHDLHKVSVQAICFTAQDRCVVSIGGVDDGSVIVFDMEAFSPICQTPASRAISGNALTVRPLHNNPYFFVTAGDRHLRLWSILREEKKLYVQDVLMASKTRVFYCARINKTDEFAYLGTGTGDIVKIVLNCCDRDHVSKQGSTSCILGAFGTHNPRKPTGRDCNRYVNGVRALYVLEGGRLLIGAGNGDIELVEERTDVPLINFRDYPGPTWPYLRTLKKTHVSGRISSFVRSKTDMFYICTDTNEIYGLNIKTWVLKLLRTCHTKSVYCITFPKNYSGVFATSGKECIRIWSSGRKQELLRIMVYNFNCACVRFTHDGTSIVSVWNDGIIRAFTPITGRLIYAIPNAHNKGCSALAVASSGRLIVTGGIEGQVRVWKIDPYRQDLVGVLKDHSGPITSLDINYLDTEVISACTDGSCVIWDIKRMTRKQVVTANTQFMSASYFPTGVQVITCGSDGRIIYWMVYNGALIRELTASKKSSVNCLAINETGDYFITVGSDLQVKLWDYNSGAVVGIGSEHASSVISCAYSPCMTMFVTGSTDGSLIIWDVPRDFWGRPNPPDVTKYSLPKTSSKTRMSDVPSRVNSGTNLKTTKGENIDGLLKATPKDDLCCVECPPCAKKDTKGVDPYAECGIVPDVRKC | failed
